This note sets out measurements from paper PMC3859963 (Molecular cancer therapeutics, 2013).

Square brackets hold non-standard residues; d marks the D form. Ends that are not written are not given here.

For the assay, the target named is CD44s (UniProt P16070-12 21-361). The assay can be described thus: flow cytometry on cells. A general note: Flow cytometry measures light scatter and fluorescence of single cells or particles in a stream.

Regarding [dK][dI][dK][dM][dV][dI][dS][dW][dK]G (also: 5(6)-FAM label, position not given here) [5(6)-FAM-HYD1], the “fold increase of binding versus vector only cells” value turned out to be 1.5 fold.
